Results as given in patent US20090324491A1 (FORERUNNER PHARMA RESEARCH, published 2009).

B1: anti-EREG mouse monoclonal antibody EP29 (B3#41) (antibody, mouse IgG1, V domains shown)
VH: EVQLQQSGTVLARPGASVKMSCKASGYTFTSYWMHWVKQRPGQGLEWIGAIYPGNSDSYNQKFKGKAKLTAVTSTSTAYMELSSLTNEDSAVYYCTSVMAYWGQGTSVTVSS
VL: DIQMTQSPSSLSASLGERVSLTCRASQDIGNSLNWLQQEPDGTIKRLIYATSNLDSGVSKRFSGSRSGSDYSLTISSLESEDFVDYYCLQYASSPWTFGGGTKLEIK
notes: Mouse IgG1/κ hybridoma antibody
B2: anti-EREG mouse monoclonal antibody EP24 (B3#8) (antibody, mouse IgG1, V domains shown)
VH: QVQLKESGPGLVAPSQSLSITCTVSGFSLSSYGVHWVRQPPGKGLEWLGVIWRDGSTTYNSALKSRLSISKDGSKSQVFLKMNSLQTDDTAMYYCARNWNGLMDYWGQGTSVTVSS
VL: DIQMTQTTSSLSASLGDRVTISCRASQDISYYLNWYQQRPDGTVKLLIYYTSRLHSGVPSRFSGSGSGTESSLTISNLEQEDIATYFCQQGHTVPWTFGGGTKLEIK
notes: as for B1
B3: anti-EREG mouse monoclonal antibody EP27 (B3#18) (antibody, mouse IgG2b, V domains shown)
VH: EDQLQQSGAELVKPGASVKLSCTASGFNIKDTYIQWVKLRPEQGLEWIGRIDPLNGNTKYVPKFQGKATITADTSSNTAYLQLSSLTSEDTAVYYCVRSGTLFDFWGQGTTLTVSS
VL: DIQMTQSPSSLSASLGGKVTITCKASQDIHKYIAWYQHKPGKGPRLLIQYTSTLQPGIPSRFSGSGSGRDYSFSISNLEPEDIATYYCLQYDNLRTFGGGTKLEIK
notes: also called B3#18_IgG2b
B4: anti-EREG mouse monoclonal antibody EP03 (C7) (antibody, mouse IgG1, V domains shown)
VH: QVQLQQPGAELVKPGASVKLSCKASGYTFTNYWMNWVKQRPGRGLEWIGRIHPSDSETHYNQKFKNKATLTVDKSSSTAYIQLSSLTSEDSAVYYCANLYYYTMDYWGQGTSVTVSS
VL: DIQMTQSPSSLSASLGGKVTITCKASQDINKNIAWHQHKPGKGPRLLIWYTSTLQPGIPSRFSGSGSGRDYSFSISNLEPEDIATYYCLQYDNLPYTFGSGTKLEIK
notes: as for B1
B5: anti-EREG mouse monoclonal antibody EP08 (#15) (antibody, mouse IgG1, V domains shown)
VH: QVQLQQPGAELVKPGASVKLSCKASGYTFTSYWMHWVKQRPGQGLEWIGEINPYNGGTNYNEKFKSKATLTVDKSSSTAYMQLSSLTSEDSAVYYCTIWKLGTYWGQGTLVTVSA
VL: DIQMTQSPSSLSASLGERVSLTCRASQEISGYLSWLQQKPDGTIKRLIYAASTLDSGVPKRFSGSRSGSDYSLTISSLESEDFADYYCLQYASYPRTFGGGTKLEIK
notes: as for B1
B6: anti-EREG mouse monoclonal antibody EP20 (B2#30) (antibody, mouse IgG1, V domains shown)
VH: QVQLQQSGAELVRPGVSVKISCKGSGYTFTVYSLHWVKQSHARSLEWIGVISTYYGDAIYNQKFKGKATMTVDKSSSTAYMELARLTSEDSAIYYCAREGNGNPLDYWGQGTTLTVSS
VL: QIVLTQSPAIMSASLGERVTMTCTASSSVSSSYLHWYQQKPGSSPKLWIYSTSNLASGVPARFSGSGSGTSYSLTITNMEAEDSATYYCHQYHRSPLTFGAGTKLELK
notes: as for B1

Each binder was assayed against T1, soluble human EREG fragment (EGF domain; 63Val to 108Leu) comprising a mature structure, R&D Systems cat. no. … (human, UniProt O14944 63-108) (assay: ELISA, EREG fragment immobilized on immuno plate; note: binds, but with low reactivity).
T1 construct: Bought protein; also called soluble EREG; recombinant human EREG
Experimental: (§1) The binding towards partial fragments of the extracellular domain of human EREG was analyzed to determine antibody epitope. The N-terminal partial sequence fragment of ²⁹Ala to ⁶⁹Ser of human EREG of SEQ ID NO: 21 was expressed as a GST fusion protein and purified to homogeneity. The sequence of the obtained recombinant protein is shown in SEQ ID NO: 172. A soluble human EREG fragment (EGF domain; corresponding to ⁶³Val to ¹⁰⁸Leu of SEQ ID NO: 21) comprising a mature structure was purchased from R&D Systems (cat. no. 1195-EP/CF). Fragments of the EREG protein were immobilized onto an immuno plate, and the binding of the antibodies was examined by ELISA. Most of the antibodies bound to the soluble EREG fragment that comprises the EGF domain (indicated as “ereg” in Table 3). EP25 and EP32 bound to the N-terminal fragment (“Nterm”). All of the isolated antibodies bound to either one of the peptide fragments, and none of the antibodies recognized the sequence beyond residue 109.

T1 sequence (O14944 63-108): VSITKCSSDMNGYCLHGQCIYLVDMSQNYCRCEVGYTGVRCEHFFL

Binding result, binds:
B1

Each binder was assayed against T1, soluble human EREG fragment (EGF …) (assay: ELISA, EREG fragment immobilized on immuno plate).
Experimental: as §1

Binding result, binds:
B2
B3
B4
B5
B6
